Reference: the supplement of paper PMC9112550, “Optimization of the antimicrobial peptide Bac7 by deep mutational scanning” (BMC Biology, 2022)

Test system: Escherichia coli TOP10
Assay: shrunken log2 fold change of peptide-encoding DNA abundance (4.5 h post-induction vs induction); higher = less antimicrobial activity (less host growth inhibition)
Conditions: time post-induction: 4.5 h; library: site-saturation at positions 5, 18, 19, 20
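Also: peptides expressed intracellularly from a pBAD plasmid library in pooled LB shake-flask culture, induced with 0.3% L-arabinose, DNA abundance read by NGS, three biological replicates, DESeq2 with apeglm shrinkage.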

RRIRDRPPRLPRPRPRPMWGPRP
shrunken log2 fold change: -0.0471

RRIRLRPPRLPRPRPRPNKQPRP
shrunken log2 fold change: -0.0903

RRIRVRPPRLPRPRPRPFLIPRP
shrunken log2 fold change: -0.777

RRIRPRPPRLPRPRPRPFVLPRP
shrunken log2 fold change: -0.352

RRIRDRPPRLPRPRPRPMMVPRP
shrunken log2 fold change: 0.0541

RRIRSRPPRLPRPRPRPSMWPRP
shrunken log2 fold change: 0.149

RRIRQRPPRLPRPRPRPDTCPRP
shrunken log2 fold change: 0.0121

RRIRIRPPRLPRPRPRPPEDPRP
shrunken log2 fold change: 0.324

RRIRKRPPRLPRPRPRPIPHPRP
shrunken log2 fold change: 0.359

RRIRLRPPRLPRPRPRPPAQPRP
shrunken log2 fold change: 0.888

RRIRLRPPRLPRPRPRPMYLPRP
shrunken log2 fold change: 0.0092

RRIRWRPPRLPRPRPRPQFEPRP
shrunken log2 fold change: 1.87

RRIRTRPPRLPRPRPRPTKSPRP
shrunken log2 fold change: 0.0353

RRIRWRPPRLPRPRPRPQTCPRP
shrunken log2 fold change: 0.108

RRIRQRPPRLPRPRPRPVDVPRP
shrunken log2 fold change: -0.208

RRIRTRPPRLPRPRPRPCMHPRP
shrunken log2 fold change: -0.0639

RRIRDRPPRLPRPRPRPWHQPRP
shrunken log2 fold change: -0.0511

RRIRPRPPRLPRPRPRPGEYPRP
shrunken log2 fold change: -0.207

RRIRLRPPRLPRPRPRPWETPRP
shrunken log2 fold change: 0.0162

RRIRCRPPRLPRPRPRPNEKPRP
shrunken log2 fold change: -0.00225

RRIRHRPPRLPRPRPRPTLGPRP
shrunken log2 fold change: -0.0595

RRIRPRPPRLPRPRPRPCTEPRP
shrunken log2 fold change: 0.0737

RRIRIRPPRLPRPRPRPDICPRP
shrunken log2 fold change: -0.0265

RRIRDRPPRLPRPRPRPCLKPRP
shrunken log2 fold change: -0.000218

RRIRMRPPRLPRPRPRPIHPPRP
shrunken log2 fold change: -0.0207

RRIRTRPPRLPRPRPRPSKDPRP
shrunken log2 fold change: -0.61

RRIRVRPPRLPRPRPRPQNVPRP
shrunken log2 fold change: -0.51

RRIRERPPRLPRPRPRPWYNPRP
shrunken log2 fold change: -0.174

RRIRERPPRLPRPRPRPAPYPRP
shrunken log2 fold change: -0.123

RRIRERPPRLPRPRPRPWTQPRP
shrunken log2 fold change: -0.298

RRIRMRPPRLPRPRPRPIHIPRP
shrunken log2 fold change: -0.221

RRIRMRPPRLPRPRPRPDDIPRP
shrunken log2 fold change: -0.00151

RRIRGRPPRLPRPRPRPRQWPRP
shrunken log2 fold change: 0.585

RRIRIRPPRLPRPRPRPAVKPRP
shrunken log2 fold change: -0.0893

RRIRLRPPRLPRPRPRPCLKPRP
shrunken log2 fold change: -0.682

RRIRDRPPRLPRPRPRPMTGPRP
shrunken log2 fold change: 0.0274

RRIRIRPPRLPRPRPRPNNWPRP
shrunken log2 fold change: -0.535

RRIRWRPPRLPRPRPRPYGVPRP
shrunken log2 fold change: 0.00576

RRIRYRPPRLPRPRPRPRSSPRP
shrunken log2 fold change: 0.069

RRIRLRPPRLPRPRPRPYGHPRP
shrunken log2 fold change: 2.49

RRIRCRPPRLPRPRPRPDDPPRP
shrunken log2 fold change: 0.0647

RRIRLRPPRLPRPRPRPWCQPRP
shrunken log2 fold change: -0.0199

RRIRPRPPRLPRPRPRPIVHPRP
shrunken log2 fold change: -0.155

RRIRYRPPRLPRPRPRPGAAPRP
shrunken log2 fold change: 0.176

RRIRSRPPRLPRPRPRPVEEPRP
shrunken log2 fold change: 0.0884

RRIRYRPPRLPRPRPRPDFWPRP
shrunken log2 fold change: 0.125

RRIRKRPPRLPRPRPRPVRHPRP
shrunken log2 fold change: 0.0899

RRIRIRPPRLPRPRPRPMFVPRP
shrunken log2 fold change: -0.279

RRIRTRPPRLPRPRPRPNCEPRP
shrunken log2 fold change: 0.111

RRIRIRPPRLPRPRPRPSSYPRP
shrunken log2 fold change: -0.207

RRIRIRPPRLPRPRPRPMCNPRP
shrunken log2 fold change: -0.0808

RRIRGRPPRLPRPRPRPWCQPRP
shrunken log2 fold change: 0.224

RRIRIRPPRLPRPRPRPYPNPRP
shrunken log2 fold change: -0.072

RRIRGRPPRLPRPRPRPPTEPRP
shrunken log2 fold change: 1.04

RRIRVRPPRLPRPRPRPHTWPRP
shrunken log2 fold change: -0.351

RRIRFRPPRLPRPRPRPCERPRP
shrunken log2 fold change: -0.141

RRIRDRPPRLPRPRPRPCFCPRP
shrunken log2 fold change: -0.054

RRIRWRPPRLPRPRPRPQMMPRP
shrunken log2 fold change: -0.0594

RRIRQRPPRLPRPRPRPDHAPRP
shrunken log2 fold change: 0.014

RRIRNRPPRLPRPRPRPTTMPRP
shrunken log2 fold change: -0.0975

RRIRHRPPRLPRPRPRPFMSPRP
shrunken log2 fold change: -0.301

RRIRDRPPRLPRPRPRPRHPPRP
shrunken log2 fold change: 0.0563

RRIRLRPPRLPRPRPRPMSEPRP
shrunken log2 fold change: -0.0383

RRIRERPPRLPRPRPRPRLIPRP
shrunken log2 fold change: -0.635

RRIRARPPRLPRPRPRPWCMPRP
shrunken log2 fold change: -0.223

RRIRHRPPRLPRPRPRPAPKPRP
shrunken log2 fold change: -0.164

RRIRDRPPRLPRPRPRPTQDPRP
shrunken log2 fold change: 1.27

RRIRVRPPRLPRPRPRPRAEPRP
shrunken log2 fold change: 0.677

RRIRDRPPRLPRPRPRPNLSPRP
shrunken log2 fold change: -0.115

RRIRCRPPRLPRPRPRPIMEPRP
shrunken log2 fold change: -0.231

RRIRTRPPRLPRPRPRPGRSPRP
shrunken log2 fold change: 0.194

RRIRRRPPRLPRPRPRPTILPRP
shrunken log2 fold change: -0.0149

RRIRQRPPRLPRPRPRPEYYPRP
shrunken log2 fold change: -0.306

RRIRTRPPRLPRPRPRPRTTPRP
shrunken log2 fold change: 0.419

RRIRSRPPRLPRPRPRPVMGPRP
shrunken log2 fold change: -0.0522

RRIRHRPPRLPRPRPRPKAGPRP
shrunken log2 fold change: -0.115

RRIRQRPPRLPRPRPRPFIWPRP
shrunken log2 fold change: -0.357

RRIRDRPPRLPRPRPRPAALPRP
shrunken log2 fold change: 0.488

RRIRARPPRLPRPRPRPGQYPRP
shrunken log2 fold change: 0.0253

RRIRKRPPRLPRPRPRPKEVPRP
shrunken log2 fold change: 0.0319

RRIRHRPPRLPRPRPRPMSQPRP
shrunken log2 fold change: -0.151

RRIRIRPPRLPRPRPRPCLRPRP
shrunken log2 fold change: -1.04

RRIRSRPPRLPRPRPRPTHAPRP
shrunken log2 fold change: 0.368

RRIRVRPPRLPRPRPRPYNWPRP
shrunken log2 fold change: -0.603

RRIRGRPPRLPRPRPRPNSVPRP
shrunken log2 fold change: -0.0052

RRIRKRPPRLPRPRPRPAYDPRP
shrunken log2 fold change: -0.116

RRIRWRPPRLPRPRPRPQMVPRP
shrunken log2 fold change: 0.0853

RRIRVRPPRLPRPRPRPNHVPRP
shrunken log2 fold change: -0.3

RRIRTRPPRLPRPRPRPIDIPRP
shrunken log2 fold change: 0.0364

RRIRNRPPRLPRPRPRPRDVPRP
shrunken log2 fold change: 0.0624

RRIRKRPPRLPRPRPRPTDEPRP
shrunken log2 fold change: 0.819
